Laboratory results from publication PMC8547954, “Myopalladin knockout mice develop cardiac dilation and show a maladaptive response to mechanical pressure overload” (eLife, 2021).

Key:
Conditions in all cases: both partners purified
[1] = target: T1, human MYPN C-terminal region including three Ig domains (MYPN C-term; Res. 813-1320), N-terminal 6xHis-tag (human, UniProt Q86TC9-1 813-1320, NT-647 dye via NHS-driven amino coupling (only where it was the labelled partner, Figure 1C)); assay: MST; 450 nM NT-647-labelled titin Ig Z4-Z5 titrated with MYPN (up to 20 µM) or PALLD (up to 30 µM) C-term; 30 min at room temperature in 20 mM Tris-HCl pH 8, 150 mM NaCl, 5 mM EDTA, 4 mM DTT; Hill fit; saturation not reached, Kd could not be unequivocally determined; apparent
T1 construct: Unlabelled in assay a3, labelled with NT-647 in assay a4; also called MYPN C-terminal fragment; MYPN C-terminal domain; source: E. coli BL21-CodonPlus (DE3)-RIPL, purified (HisTrap, Superdex 75 SEC)
T1 sequence (looked up): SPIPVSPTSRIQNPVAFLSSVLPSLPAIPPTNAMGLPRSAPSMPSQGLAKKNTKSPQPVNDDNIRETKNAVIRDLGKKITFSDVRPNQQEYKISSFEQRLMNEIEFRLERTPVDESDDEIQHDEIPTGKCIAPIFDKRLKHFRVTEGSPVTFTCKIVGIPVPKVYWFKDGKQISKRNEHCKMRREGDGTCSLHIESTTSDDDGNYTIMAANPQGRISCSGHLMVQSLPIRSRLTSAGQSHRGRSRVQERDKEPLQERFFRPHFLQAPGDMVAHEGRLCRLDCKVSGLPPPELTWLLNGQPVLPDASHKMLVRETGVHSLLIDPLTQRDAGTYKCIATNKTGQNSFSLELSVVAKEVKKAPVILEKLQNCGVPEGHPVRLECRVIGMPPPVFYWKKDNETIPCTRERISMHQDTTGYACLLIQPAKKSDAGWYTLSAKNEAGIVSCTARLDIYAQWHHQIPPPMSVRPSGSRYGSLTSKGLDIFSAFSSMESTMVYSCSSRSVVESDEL

[2] = target: T2, PALLD C-terminal region (PALLD C-term; Res. 794-1123), N-terminal 6xHis-tag followed by a human rhinovirus 3C … (human, UniProt Q8WX93-9 794-1123); assay: as above
T2 construct: numbers count on: NM_001166108.1; A 3C protease site follows the tag; also called homologous fragment of PALLD; PALLD C-terminal domain; source: E. coli BL21-CodonPlus (DE3)-RIPL, purified (HisTrap, Superdex 75 SEC)
T2 sequence (looked up): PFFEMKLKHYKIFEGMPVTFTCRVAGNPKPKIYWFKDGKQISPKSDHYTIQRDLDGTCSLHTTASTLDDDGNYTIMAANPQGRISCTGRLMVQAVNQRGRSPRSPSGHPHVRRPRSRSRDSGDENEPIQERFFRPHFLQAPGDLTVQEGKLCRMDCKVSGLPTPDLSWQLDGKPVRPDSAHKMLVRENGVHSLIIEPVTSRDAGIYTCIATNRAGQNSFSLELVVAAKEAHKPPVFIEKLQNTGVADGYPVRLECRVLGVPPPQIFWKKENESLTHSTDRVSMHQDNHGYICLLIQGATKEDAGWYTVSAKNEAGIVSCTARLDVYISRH

[3] = target: T1, human MYPN C-terminal region including …; assay: MST; 400 nM NT-647-labelled MYPN C-term titrated with titin Ig Z4-Z5; 30 min at room temperature in 20 mM Tris-HCl pH 8, 150 mM NaCl, 5 mM EDTA, 4 mM DTT; Hill fit; full saturation reached; apparent

Kd [1]: 7.2 ± 2.6 µM
Kd [2]: 6.1 ± 0.8 µM
Kd [3]: 2.8 ± 0.5 µM
B1: titin Ig domains Z4-Z5 (Res. 942-1173), N-terminal 6xHis-tag (domain or fragment, human, UniProt Q8WZ42-1 942-1173, looked up)
chain: PPTLVSGLKNVTVIEGESVTLECHISGYPSPTVTWYREDYQIESSIDFQITFQSGIARLMIREAFAEDSGRFTCSAVNEAGTVSTSCYLAVQVSEEFEKETTAVTEKFTTEEKRFVESRDVVMTDTSLTEEQAGPGEPAAPYFITKPVVQKLVEGGSVVFGCQVGGNPKPHVYWKKSGVPLTTGYRYKVSYNKQTGECKLVISMTFADDAGEYTIVVRNKHGETSASASLLE
modifications: NT-647 dye via NHS-driven amino coupling (only where it was the labelled partner, Figure 1B)
notes: titin, human, Ig domains Z4-Z5, residues 942-1173 of NM_001256850.1; Labelled with NT-647 in assay a3, unlabelled in assay a4; also called titin Ig domain Z4-Z5 peptide; titin Ig domain Z4-Z5 fragment; source: E. coli BL21-CodonPlus (DE3)-RIPL, purified (HisTrap, Superdex 75 SEC)
